Experimental data as given in paper PMC10516654, “Structural and functional characterization of MrpR, the master repressor of the Bacillus subtilis prophage SPβ”.

Biological target: T1, MrpR (Bacillus subtilis prophage SPβ, UniProt O34558 1-325)
T1 sequence: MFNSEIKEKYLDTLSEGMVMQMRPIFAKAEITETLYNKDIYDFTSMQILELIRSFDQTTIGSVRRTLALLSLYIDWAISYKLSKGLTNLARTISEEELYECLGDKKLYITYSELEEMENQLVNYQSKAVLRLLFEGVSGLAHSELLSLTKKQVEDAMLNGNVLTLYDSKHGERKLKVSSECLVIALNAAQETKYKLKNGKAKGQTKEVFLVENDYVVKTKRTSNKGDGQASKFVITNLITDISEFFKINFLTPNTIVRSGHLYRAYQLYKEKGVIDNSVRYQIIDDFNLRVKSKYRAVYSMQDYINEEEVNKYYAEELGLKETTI
Assay: ITC; ITC: 20 mM HEPES-Na pH 7.5, 200 mM NaCl, 20 mM KCl, 25 C, 20 uM DNA in cell, protein in syringe, one set of sites; EMSA: same buffer plus 50 ug/ml herring sperm DNA, 50 nM DNA, RT 15 min, 6% native PAGE 0.5x TBE
Settings: protein: recombinant; tags: C-terminal His6; blunt

B1: aimR promoter ITC duplex (LC292/LC293) (dsDNA)
DNA 1: GAATTTTAAAGAGATTACAAATACAAAAAATATGTATAAAATAATTGACTCGTAATG
DNA 2: CATTACGAGTCAATTATTTTATACATATTTTTTGTATTTGTAATCTCTTTAAAATTC
Kd: 238 ± 80 nM
